Reference: IntAct's records for PubMed 9990021

B1: X-linked retinitis pigmentosa GTPase regulator (Homo sapiens), Q92834-2 (parent)
chain: MREPEELMPDSGAVFTFGKSKFAENNPGKFWFKNDVPVHLSCGDEHSAVVTGNNKLYMFGSNNWGQLGLGSKSAISKPTCVKALKPEKVKLAACGRNHTLVSTEGGNVYATGGNNEGQLGLGDTEERNTFHVISFFTSEHKIKQLSAGSNTSAALTEDGRLFMWGDNSEGQIGLKNVSNVCVPQQVTIGKPVSWISCGYYHSAFVTTDGELYVFGEPENGKLGLPNQLLGNHRTPQLVSEIPEKVIQVACGGEHTVVLTENAVYTFGLGQFGQLGLGTFLFETSEPKVIENIRDQTISYISCGENHTALITDIGLMYTFGDGRHGKLGLGLENFTNHFIPTLCSNFLRFIVKLVACGGCHMVVFAAPHRGVAKEIEFDEINDTCLSVATFLPYSSLTSGNVLQRTLSARMRRRERERSPDSFSMRRTLPPIEGTLGLSACFLPNSVFPRCSERNLQESVLSEQDLMQPEEPDYLLDEMTKEAEIDNSSTVESLGETTDILNMTHIMSLNSNEKSLKLSPVQKQKKQQTIGELTQDTALTENDDSDEYEEMSEMKEGKACKQHVSQGIFMTQPATTIEAFSDEEVEIPEEKEGAEDSKGNGIEEQEVEANEENVKVHGGRKEKTEILSDDLTDKAEDHEFSKTEELKLEDVDEEINAENVESKKKTVGDDESVPTGYHSKTEGAERTNDDSSAETIEKKEKANLEERAICEYNENPKGYMLDDADSSSLEILENSETTPSKDMKKTKKIFLFKRVPSINQKIVKNNNEPLPEIKSIGDQIILKSDNKDADQNHMSQNHQNIPPTNTERRSKSCTIL

Variants of: B1
Settings: with pde6d_mouse Pde6d

| Variant | effect of a mutation on the interaction |
| --- | --- |
| G275S | disrupting interaction |
| P235S | decreasing interaction |
| C250R | disrupting interaction |
| G215V | disrupting interaction |
| H98Q | disrupting interaction |
| F130C | disrupting interaction |
